Assay [1] addresses T1, G protein of RSV A/Long (ATCC Cat. No. VR-26), on virus (Respiratory syncytial virus A/Long, UniProt P20895 1-298).
T1 sequence (looked up): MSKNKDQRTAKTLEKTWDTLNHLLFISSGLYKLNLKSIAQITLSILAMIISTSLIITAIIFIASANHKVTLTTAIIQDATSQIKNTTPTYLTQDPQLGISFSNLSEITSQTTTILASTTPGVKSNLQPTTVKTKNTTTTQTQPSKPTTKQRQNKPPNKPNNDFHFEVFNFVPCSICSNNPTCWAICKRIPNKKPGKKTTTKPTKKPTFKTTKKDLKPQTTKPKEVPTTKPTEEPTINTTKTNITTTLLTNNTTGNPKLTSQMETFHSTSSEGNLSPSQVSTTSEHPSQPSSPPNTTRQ
The assay is described as follows: cell-based or functional assay.

In assay [2] the target is G protein of RSV B/18537 (ATCC Cat. No. VR-1580), on virus (Respiratory syncytial virus B/18537). The assay is described as follows: cell-based or functional assay.
The target in assay [3] is T2, Recombinant RSV attachment protein (G protein) corresponding to RSV B/B1 (Respiratory syncytial virus B/B1, UniProt O36633 65-299).
T2 construct: also called RSV Gb; Gb
T2 sequence: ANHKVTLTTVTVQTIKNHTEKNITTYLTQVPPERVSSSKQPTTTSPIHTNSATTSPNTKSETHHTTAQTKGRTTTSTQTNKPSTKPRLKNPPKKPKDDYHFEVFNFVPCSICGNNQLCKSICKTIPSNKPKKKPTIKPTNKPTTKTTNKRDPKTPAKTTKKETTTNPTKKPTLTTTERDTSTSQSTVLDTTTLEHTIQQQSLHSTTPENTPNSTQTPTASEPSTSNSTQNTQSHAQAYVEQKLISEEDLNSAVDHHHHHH
The assay is described as follows: ELISA, coated recombinant protein.

In assay [4] the target is T3, Sym-1705 (RSV-G type A central region peptide 145-201) (Respiratory syncytial virus type A, not fully specified; N-terminal biotin).
T3 construct: Synthetic peptide
T3 peptide: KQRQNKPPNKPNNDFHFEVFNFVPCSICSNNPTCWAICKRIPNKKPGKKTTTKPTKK
The assay can be described thus: Octet Red384, streptavidin tips with biotinylated peptide. (In general: In BLI a coated tip is dipped into the sample, and binding shifts an interference pattern.)

Assay [5] concerns the target T4, Sym-1706 (RSV G central conserved domain (CCD) peptide, type A 145-184) (Respiratory syncytial virus type A, N-terminal biotin).
T4 construct: Synthetic peptide, C-terminally truncated against Sym-1705
T4 peptide: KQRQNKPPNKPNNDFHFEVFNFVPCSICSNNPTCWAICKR
The description is as above.

Assay [6] addresses T5, Sym-1788 (RSV-G type B central region peptide 145-201) (Respiratory syncytial virus type B, N-terminal biotin).
T5 construct: Synthetic peptide
T5 peptide: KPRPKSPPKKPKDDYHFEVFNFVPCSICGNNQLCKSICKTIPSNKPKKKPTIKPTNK
The description is as above.

In assay [7] the target is T6, Sym-1789 (RSV-G type B central region peptide 145-184) (Respiratory syncytial virus type B, N-terminal biotin).
T6 construct: Synthetic peptide, C-terminally truncated against Sym-1788
T6 peptide: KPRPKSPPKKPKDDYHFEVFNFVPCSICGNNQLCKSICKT
Described as above.

Assay [8] concerns the target T3, Sym-1705 (RSV-G type A central region …). The assay can be described thus: ELISA, antibody titrated on biotinylated peptide on avidin plate. In general terms: An ELISA detects its analyte on a solid surface through an enzyme-linked reagent.
Assay [9] concerns the target T4, Sym-1706 (RSV G central conserved …). The assay is described as above.
In assay [10] the target is T5, Sym-1788 (RSV-G type B central region …). Described as above.
Assay [11] concerns the target T6, Sym-1789 (RSV-G type B central region …). The description is as above.

This is an account of results in patent publication US20160145322A1 (CRUCELL HOLLAND B V, published 2016).

B1: CB030.1 (antibody, V domains shown)
VH: QVQLVQSGAEMKRPGSSVKVSCKASGGTFSTFAINWVRQAPGQGFEWMGGVIPGFDSANYAQKFQGRLTMSADESTSTVYMELSSLRSDDTAVYYCAGNSGYCSGDSCAPNWGPGTLVTVSS
VL: DIVMTQSPLSLPVTPGEPASISCRSSQSLVHSNGYSYLDWYLQKPGQSPQLLIYLGSNRPSGVPDRFSGSGSGTDFTLKISRVEAEDVGVYFCMQNLQTPTFGGGTKVEIK
notes: Tested as human IgG from the pCP9-kappa vector
As usually defined, the IC50 is the concentration at which inhibition is half-maximal. The low end stands for greater potency in that assay, the high end for weaker potency in that assay. For the molecule B1, the “Neutralization IC50, plaque reduction assay, RSV A/Long” value in assay [1] is 37 ng/mL. For the same molecule, the “Neutralization IC50 (ng/mL), plaque reduction assay, RSV B/18537” value in [2] was 18.3 ng/mL. In addition, the binding result in [3] is recorded as “binds”. Further, the “Binding (Octet) [RU]” value in [4] stood at 0.47 RU; in [5], 0.53 RU; in [6] it was 0.73 RU; in assay [7], 1.36 RU. Also, the IC50 in assay [8], in assay [9], in assay [10] and in [11] was around 0.02 µg/mL each time.
